{
  "source": "the DeepSol protein solubility set",
  "data": [
    {"assay": "soluble on expression in E. coli; label from the status in PepcDB or PDB records", "values": [
      {"sequence": "MGSDKIHHHHHHYTEQPIDLVPTQPLPNASFDNFKLTCSNTKFADDLNQMTGFTKPASRELSVTFFPDLNGDVVAIDYRHYSASFKKGAKLLHKPIVWHINQATTKTTFKPNTWCLRCLWSTKPVDT", "soluble on expression in E. coli": "soluble"},
      {"sequence": "QGGPVEILPYLFLGSCSHSSDLQGLQACGITAVLNVSASCPNHFEGLFRYKSIPVEDNQMVEISAWFQEAIGFIDWVKNSGGRVLVHSQAGISRSATICLAYLMQSRRVRLDEAFDFVKQRRGVISPNFSFMGQLLQFETQVLCH", "soluble on expression in E. coli": "soluble"},
      {"sequence": "MGSDKIHHHHHHMKTVIIVQARMTSTRLPGKVLKKVLDKPLLEYQIERLKRVKLADEIVIATTINSTDLPIIELCDRLSIPYFLGSEEDVLTRYYGAAKEHQADVVVRITSDCPLIDPLVINKVIQFFLDYRHECDYVSNSLERTYPRGMDTEVFSFLALHQAFVEAIAQPDREHVTPFIYMHPERYRLAQVVYSENQSSHRWTVDTADDFELIKRIIETLYPEIPKFTLEDCLDLFREYPDWSLINAHVEQKKYAA", "soluble on expression in E. coli": "not soluble"},
      {"sequence": "MTLEKFVDALPIPDTLKPVQQSKEKTYYEVTMEECTHQLHRDLPPTRLWGYNGLFPGPTIEVKRNENVYVKWMNNLPSTHFLPIDHTIHHSDSQHEEPEVKTVVHLHGGVTPDDSDGYPEAWFSKDFEQTGPYFKREVYHYPNQQRGAILWYHDHAMALTRLNVYAGLVGAYIIHDPKEKRLKLPSDEYDVPLLITDRTINEDGSLFYPSAPENPSPSLPNPSIVPAFCGETILVNGKVWPYLEVEPRKYRFRVINASNTRTYNLSLDNGGDFIQIGSDGGLLPRSVKLNSFSLAPAERYDIIIDFTAYEGESIILANSAGCGGDVNPETDANIMQFRVTKPLAQKDESRKPKYLASYPSVQHERIQNIRTLKLAGTQDEYGRPVLLLNNKRWHDPVTETPKVGTTEIWSIINPTRGTHPIHLHLVSFRVLDRRPFDIARYQESGELSYTGPAVPPPPSEKGWKDTIQAHAGEVLRIAATFGPYSGRYVWHCHILEHEDYDMMRPMDITDPHK", "soluble on expression in E. coli": "soluble"},
      {"sequence": "MSLSSKLRLQLDAHASIHENVRRLLQFTTSIMEANEEGIRKDIDSEFLHDFRVAIRRSRSILRLLNGVFDPEKTAWMLAGLRELGKRTNDLRDSDVYLLRREEYTSLLPPSLRPALDPFFSDLEADKRLHHRQFCRYLTGREYSGFMTSLKEFIAEGELPDPETAPLAAEPTGDVAAKTIRKALKKVLVHGRRTGSETSDAELHELRIDCKKLRYLLEFFASLFPPKATAQVLRQMKTLQDNLGTFVDLTVQMEFLQSRLETIPADRGGISEAAAIGGLLTTLYRKREKVREHFHEIFSGFDSNETGELFDELLTGLAEGHHHHHH", "soluble on expression in E. coli": "soluble"},
      {"sequence": "SRPRLSQLSVTDVTTSSLRLNWEAPPGAFDSFLLRFGVPSPSTLEPHPRPLLQRELMVPGTRHSAVLRDLRSGTLYSLTLYGLRGPHKADSIQGTARTL", "soluble on expression in E. coli": "soluble"},
      {"sequence": "MSLSATNTNLHDLLARRIPGHALEQPFYTSPEIYQQDLEHIFYREWLYAIPACQLVKPGSYATLRIGAYNIVIVKGRDGEIRAFHNSCRHRSSIVCKAREGQVAKLVCPYHQWTYDLDGKLIWANSMGPDFDPTQHGLRSVALRNLKGLIYICLADTPPDFEAFARAAEPYLGVHDLQDAKVAYSSSIIEKGNWKLVWENNRECYHCSGNHPALCRSFPLDPEVAGVSADGSISQRIQDHFDACAAAGAPAQFLLGGDGQFRLARMPLQETAVSYTMDGKAAVARQLGRVAKPDAGSLLVFHYPSTWNHFLPDHSLTFRVTPISPTETEVTTTWLVHKDAVEGVDYDLQHLTEVWIATNDEDREIVETNQEGIFSPAYIPGPYSPDWESGVIQFIDWYAAWMERSLAPSRMAAEEGHHHHHH", "soluble on expression in E. coli": "soluble"},
      {"sequence": "GSHMAGLPRRIIKETQRLLAEPVPGIKAEPDESNARYFHVVIAGPQDSPFEGGTFKLELFLPEEYPMAAPKVRFMTKIYHPNVDKLGRICLDILKDKWSPALQIRTVLLSIQALLSAPNPDDPLANDVAEQWKTNEAQAIETARAWTRLYAMNNI", "soluble on expression in E. coli": "soluble"},
      {"sequence": "FASNWVSHTHEVIQTIDTCLYDIVEIESRQRFYLIRGSSSQLMADIDDMKSTLQLNLDKLEQLTRDNPEQNKRIHRFIDLVKQRLNLLNQLVQLKGSGKLDTQEGYDLLNQSQDMSHQVKSLGQEIKSVELVLLSERNTG", "soluble on expression in E. coli": "not soluble"},
      {"sequence": "GPGSMPSITQETLRRRAEFVRTGGRGSVRRTVKVAHRNTGDDKKVQQVLKRLNVSPFNDVDDAVLYRHDGTAYYFEKPKVQASMQSQCFVVSGAYDVKEASEVPS", "soluble on expression in E. coli": "not soluble"},
      {"sequence": "MSLVTIKDIARNLGISYSTVSRCLNNNPNVSEKTKKKVVEEANRLGFHFNVNARNLAKKETNRIGVIFSNNFNHQDTRKFFSDIMDSSINSIETNKYDFIIQPNNNISGDSNVYKMVNGQMVDGLVIVSQSIKKEEYDFLKDNNFPHVFIYFKPSFIGEVDNFFWDDNVYGGYIATKHLIDHGHKDIITVTSDDKSSKMHEDRTKGYLNAMEEANLKTEVIKSKMDFESQVEFLEKYIDKIKKASAIFVQQDVPAISIIQELKTTYGINVPEDISIIGYNNIELISYFRSHLSTIDDPREQVIKNGVDSLVNIINKKSTEHIPRKLYPRLIIRNSVKRIKEGHHHHHH", "soluble on expression in E. coli": "soluble"},
      {"sequence": "MAHHHHHHMLKCARYLFGPPNTKRKCAPLFSARNFSILERYIRAKPLSHELKIEEAKNEGIKGEGDRNGEERKASEKSASTYYPPNITRGVIPKSAYMNTWKIPEQPANPKFLKVALIGAPNAGKSSLLNSILNKTISAVSPKINTTRQDIKGIYTKDNVQLIFIDSPGIVPSHKKKKFCKELVSYAWKGYEEADLVLFIADTVKRPTHDVLNIIRMLAPKKVEAYSSGSEDEGETQHYMFNHPSEDHDQEEHFEWNGKPQSDLNSSSTNEELYEKSQKNVQKFVEYFSTAMEKEAKYSDKSVKENLLKNRKKIIESYSNDVDGKDSPNGEGEQQKLVPPVILVLNKVDLCTHNKWANARAKEFMSNGNFDNIFFISAKYNKGVEELLDYIAKFKAKNQFWVYPKDSNTTLTKVQVVEQLINTYLYCWFNKDVPYRVKHHMLSWCVNLNNSLIIEYQIVVKSPKVAKMICGVHNKLIINMRRNVSYKLTQLWGQNVYVHIHVKSVSA", "soluble on expression in E. coli": "not soluble"},
      {"sequence": "MVSKNKKLNLKDKYQYLTRDMAWEPTYQDKKDIFPEEDFEGIKITDWSQWEDPFRLTMDAYWKYQAEKEKKLYAIFDAFAQNNGHQNISDARYVNALKLFISGISPLEHAAFQGYSKVGRQFSGAGARVACQMQAIDELRHSQTQQHAMSHYNKHFNGLHDGPHMHDRVWYLSVPKSFFDDARSAGPFEFLTAISFSFEYVLTNLLFVPFMSGAAYNGDMATVTFGFSAQSDEARHMTLGLEVIKFILEQHEDNVPIVQRWIDKWFWRGFRLLSLVSMMMDYMLPNKVMSWSEAWEVYYEQNGGALFKDLERYGIRPPKYQDVANDAKHHLSHQLWTTFYQYCQATNFHTWIPEKEEMDWMSEKYPDTFDKYYRPRYEYLAKEAAAGRRFYNNTLPQLCQVCQIPTIFTEKDAPTMLSHRQIEHEGERYHFCSDGCCDIFKHEPEKYIQAWLPVHQIYQGNCEGGDLETVVQKYYHINIGEDNFDYVGSPDQKHWLSIKGRKPADKNQDDA", "soluble on expression in E. coli": "soluble"},
      {"sequence": "MSLTKMVIKGGTVYDPLNGIDGEVMDIFIKDGKIVENLSDGELKDAKILDVKGKVVMPGGVDSHTHVAGPKVNTGRVMCPEDHYKSPLKKTHNTHCGSGEIVPSTYAQGYKYSSMGYTTLFEAAVPPMLARHTHEEFKVMPIVDKAGYLLLGSNWFVMKYLKEGNVEKAAAYVAWALETTKTFGIKLVNPAGVESWAWGKNVHSLEEENIHFGISSGEVIRGLGAVNEMLGLPMSIHLHANNLGHPGNWEFTIDTMDVAKNIKPAVNKQGYDNGVKTKYSHEREQSLYMTHMQFHSFGGTSWKDFESKAEDISNYVNKSDHVVMDSGSVAFGKAICMTGDGPGLYDLAVMNGQKWANVDVELECGSGVVPFVYSMKNKVHSVQWAMGIELLLLTDPRKVIMTTDNPNAGPFTKYPQLITWLMSKKAREDTMKLCHKWAGERSGLAGNDKELSLYDLATVTRATPAKAIGMGHRKGHLSPGADADITVYDISPDYNSSDYAAIEKAFTTALFTIKDGEVITKDGRIIETPKGRTYYVDAKFNEEIQKEIIADVQDWFRRYYSIGFSNYPVPDLYLTKPTPLNINVREGHHHHHH", "soluble on expression in E. coli": "not soluble"},
      {"sequence": "AHHHHHHASAKWVCKICGYIYDEDAGDPDNGISPGTKFEELPDDWVCPICGAPKSEFEKLEDGSPKLMTGFVRASGYANKVRRVLFAITRGKVFPEEVVKAAGELNKIIFEKLQEMGVKKEDVVRISVDFNIEDGKIVWNLDSLEIETYKKEEEEKLALAMEEVEHMEKMFEETVKELEALSDKLREISKEISELVERMKQEYTGLKLRSE", "soluble on expression in E. coli": "soluble"},
      {"sequence": "MRPPISSGRIGDGGLDSCPEKKEEEKDSTSRLCSDLSDLRIERIGSTPAFQWISVYTKRPPMKQRFHHNIANSRLSHHAEKGKRDGLFISCVASEANLWALVMDAGTGFTSQVYKFSSTFLPKDWIMKQWEKNYYISSIAGANNGSSLVVMSKGTRYIQQSYKTGDSIPLKWMDKKWKEGFHVTSMTTGGSRWGVVMSRNSGFSEQVMEVDFLNPSEDINRRLESGYMITSMAATADQAALILSIPRRKITDEIQETLRTSSFPSSYVKDKWGKNMFITSICYGRTV", "soluble on expression in E. coli": "soluble"},
      {"sequence": "MSDISEKFWDASIEELKKGYVFDEEKEEYICLACGETFIKGVIYQDNQILYEAEKFVQLHIQNEHTSMFDYLLNMDKKFTGLTDLQKKMVQFFHMGLNDKEIVKEMDGGSTSTIRNHRFTLREKMKQAKVFLALMELSEEKSKVQTKFVPIHRTATMVDDRYNITEEENDEVLKAHFTEGLDGPLSKFPKKQKRKLIILRHLVKKFDSNKKYTEKEVNTVIENVYPDFVTLRRYLIEYGFLDRTADGSQYWVKL", "soluble on expression in E. coli": "not soluble"},
      {"sequence": "SNAMPSIRYPSTEFPALTGFTVPIPETWQPDPTMGTQFAARPHTPPQGFTPNIIGTVRRAATGALHNQRTELDQRATQLPDYAERGRTETTVDGFPAYHIEYAYRHHGTITIAQMITLVEVSHPHAVDIIQLTATCAGDQTADYWDTFRLMHADLTVQPHG", "soluble on expression in E. coli": "soluble"},
      {"sequence": "MGSDKIHHHHHHMLISLEDTNYTLVKEYLEKSVNHHILQRYIDNHNFPIIEKSYHKYLTFESLEEDFTYILKDGIVKQSVLSKYGMEFNLRYVTGLEITSVLNTGYSKDMGEPYNVRIESEKASFYKVRRSAFLKDINEDIELQGYVKDFYHNRLQKSMKKMQCMLTNGRIGAISTQIYDLMTLFGEELPNGQILINFVITNEELGKFCGISTASSVSRILKQLKEKNIIRIDKQHIIITNLDKLKDNIVF", "soluble on expression in E. coli": "not soluble"},
      {"sequence": "MGSDKIHHHHHHMIRKIIKIDKEKCNGCGACASACHEGAIDIIDGKAELVREHFCDGLGDCLPECPTGAISFEERDAPAYDEEAVKEAQKKIAAKNRAISSHSGCPGSKIMQIRRTETSEPVKATSTADSGSKLQNWPVQIKLAPVNAPYFNGSKLLIAADCTAYAYAAFHQDFIRNKVTLIGCPKLDQVDYSEKLTAIIQNNSIQSVTIVRMEVPCCGGLEIAAKKALQASGKFIPWQVVTISIDGKIME", "soluble on expression in E. coli": "not soluble"},
      {"sequence": "TQHIESHTHVVSLEEIPVERNLAQLTGWTEGAPVWRLVRQREIEGEVDILDIDYLIKEIVPELPKHRAEDSIFDYLENDLGLAISYAQKEITVEPLTEMDKQLIGEVEGNHVVVVRSIMNLEDTRCFGYTESRHRLNKFKFVEFARRRKL", "soluble on expression in E. coli": "soluble"},
      {"sequence": "MYMSSLQSTRERVLGTPRRRYKVLVAKMGLDGHDRGAKVVARALRDAGFEVVYTGLRQTPEQVAMAAVQEDVDVIGVSILNGAHLHLMKRLMAKLRELGADDIPVVLGGTIPIPDLEPLRSLGIREIFLPGTSLGEIIEKVRKLAEEKRMREEAEASEQVGQA", "soluble on expression in E. coli": "soluble"}
    ]}
  ]
}
